Laboratory results: publication PMC5720721, “A thermal after-effect of UV irradiation of muscle glycogen phosphorylase b” (PLoS ONE, 2017)

Molecular target: the molecule itself
Assay: AUC; sedimentation velocity; native Phb and UV-Phb 0.75 mg/ml; 0.03 M Hepes, pH 6.8, 0.1 M NaCl; 20°C; rotor speed 52000 rpm; growing time (dose) of UV irradiation

B1: glycogen phosphorylase b from rabbit skeletal muscle (enzyme, UniProt P00489 1-843, looked up)
chain: MSRPLSDQEKRKQISVRGLAGVENVTELKKNFNRHLHFTLVKDRNVATPRDYYFALAHTVRDHLVGRWIRTQQHYYEKDPKRIYYLSLEFYMGRTLQNTMVNLALENACDEATYQLGLDMEELEEIEEDAGLGNGGLGRLAACFLDSMATLGLAAYGYGIRYEFGIFNQKICGGWQMEEADDWLRYGNPWEKARPEFTLPVHFYGRVEHTSQGAKWVDTQVVLAMPYDTPVPGYRNNVVNTMRLWSAKAPNDFNLKDFNVGGYIQAVLDRNLAENISRVLYPNDNFFEGKELRLKQEYFVVAATLQDIIRRFKSSKFGCRDPVRTNFDAFPDKVAIQLNDTHPSLAIPELMRVLVDLERLDWDKAWEVTVKTCAYTNHTVLPEALERWPVHLLETLLPRHLQIIYEINQRFLNRVAAAFPGDVDRLRRMSLVEEGAVKRINMAHLCIAGSHAVNGVARIHSEILKKTIFKDFYELEPHKFQNKTNGITPRRWLVLCNPGLAEIIAERIGEEYISDLDQLRKLLSYVDDEAFIRDVAKVKQENKLKFAAYLEREYKVHINPNSLFDVQVKRIHEYKRQLLNCLHVITLYNRIKKEPNKFVVPRTVMIGGKAAPGYHMAKMIIKLITAIGDVVNHDPVVGDRLRVIFLENYRVSLAEKVIPAADLSEQISTAGTEASGTGNMKFMLNGALTIGTMDGANVEMAEEAGEENFFIFGMRVEDVDRLDQRGYNAQEYYDRIPELRQIIEQLSSGFFSPKQPDLFKDIVNMLMHHDRFKVFADYEEYVKCQERVSALYKNPREWTRMVIRNIATSGKFSSDRTIAQYAREIWGVEPSRQRLPAPDEKIP
notes: glycogen phosphorylase b, muscle form, rabbit skeletal muscle; Mr of the dimer printed as 194800 Da; also called Phb; intact Phb; source: purified from rabbit skeletal muscle
- stoichiometry N: 2
